Test results as given in the DeepSol protein solubility set.

Assay: soluble on expression in E. coli; label from the status in PepcDB or PDB records

Row | Sequence | soluble on expression in E. coli
1 | STERRRDELSEEINNLREKVMKQSEENNNLQSQVQKLTEENTTLREQVEPTPEDEDDDIELRGAAAAAAPPPPIEEECPEDLPEKFDGNPDMLAPFMAQCQIFMEKSTRDFSVDRVRVCFVTSMMTGRAARWASAKLERSHYLMHNYPAFMMEMKHVFEDPQRREVAKRKIRRLRQGMGSVIDYSNAFQMIAQDLDWNEPALIDQYHEGLSDHIQEELSHLEVAKSLSALIGQCIHIERRLARAAAARKPRSPPRALVLPHIASHHQVDPTEPVGGARMRLTQEEKERRRKLNLCLYCGTGGHYADNCPAKASKSSPAGNSPAPL | soluble
2 | MSGLIPAHGLSFRVDASTLTGQSSLLRASLGLDDVHLQVSAITEVKSVFVADAFDRGLVTVTADKEIAIWFPPNSATEQELFVRTLSAAMNGDGPIPQPVPHLDFVAVDVETTNSDWGSICQIGAAKVRDGHVVETKEWLCTPPGDLNSFDEANIAIHGITADMVATAPSFAECYDQFADFAGDLPLAAHNAQFDMTAFLRATQAADIRLRTTNFGCSLAAARAAHLPIANHKLPTVSQHLHVELRNHHNACADAEACAGILIALTQRLNTEITDFTSAFNMLGFHTGQLSDARVYPVLKVRGASSTPASPDSAAPAIQTPPAEKPRKATKAARAPWSKVATPETIPDPNPDADPQGRLFGQSVTLSGDFAPYDKGELWAGIANQGGIIGKNVTKKTTILVCGPWDKPTSKQKRAEELRAKGQEIDLWTQEDLFAQLGLNPEDEQPPF | not soluble
3 | MPEEIATLAGGCFWCTEAAFKLLRGVLEVVPGYAGGHVPHPTYEEVCTGTTGHREAVQVRFDPGVLPYADLLRYFFAVHDPTSEDRQGPDVGPQYSPAIFYHSEEQKRVAEAVMRELAPLYPKPIATKLLPFTTFYPAEAYHRDYFARHPEAPYCRFVIAPKLEKARKAFKSLLRP | soluble
4 | MHCDLPCGVYDPAQARIEAESVKAVQEKMAGNDDPHFQTRATVIKEQRAELAKHHVSVLWSDYFKPPHFEKYPELHQLVNDTLKAMSAAKGSKDPATGQKALDYIAQIDKIFWETKKA | soluble
5 | MGSDKIHHHHHHMLEATYHSLEDLAEAIGVALSAPITIEDRNHRLLAYSTHTADTDPARIATIIGRRVPESVIDQLWKDEVIQNLAAQDEPLIISARTGVGLNDRVAIAIKQDTEILGYIWSIARSTPFSETELSDFKKGALLAQRQLLAIDMQKKRQEEKTEQFFFELLHEDMPESEILKTFSKLHVAPPGISRLMVIRFSEAITPRLADRLRYLLTIQQTVRPLLYAYDETDFILWISTNDQDAHHERLQFDAFIQSFRQMLAERFNYTNFISASSEVFTGVQSIPERYEETGIVLRLKDAFPFELSTVTRYERLGLFQLLPIFSERLRRRTVRLEEIERLRSYDEKHAASLCETLEWFLHYDGNVKQVASHLHVHPNTILYRMRRIEEEAGIRMESLPERALLYLYLKADRYPL | not soluble
6 | GPGSMSNAKNGSETTYFTAIANRDVEALKALIAQNRNVNEVAQDPVLYHRTPLHICVWENFVEGAKLLLDAGADVNALDDLHDSPYLLSGAEGRQEIMEHIYKNAERTMRYGSQTSLRMKTSVPDHSIVNRFGGSALIPACERGHVEMVRLLLQKGVDVNHYNYYHWTGLLEAIELGGDDREHVDIVRLLIENGADVNQVDGAGKTPLYLARKRKYKRIAALLEAAGGHE | soluble
7 | MGSDKIHHHHHHMAKLKISKKISTALINSLGAGVVPRVGVEYIAVGREKELKSLLQNLDDIAEGVAAFRFIIGNYGSGKSFLLQLIRNRAMEQGFVVADADLSSERRLAGSNNEGVATYRELMSHLATKTRPDGGALVSILEGWINKIQQEVVKETEMRPNDDGFDDQVESKIREVVQYIEGLVHGFDFGSVIIAYWRGYRMDDDNLKNAAMRWLRGEFTTKVEAKAALGVRVIIDDDSWYDYIKLFAKFVAEIGYKGLLILVDEAVHLYQISTTVTREKNYNRLLAMFNDTMQCKAEHLGIVVGGTTKFLEDPKRGLFADQAWQRRTKESRFVAQANVQENSGPVIRLNPLSEAEILTLLQRLAEIHALNFGYEQTLTNRELKEFVQEIINRLGAEALLTPGEIVRDFMSVLNILHQNPGIVFAELIHGSKFKPTAMGKNPNVDENGAAEFSL | not soluble
8 | MNNSEQLIALKESETAFLKYFNKADYELVDFSVVEKLDWKQLNHEDLQQMGERNFWQHEHQIYALRNDFTDQLLRYYSMYPTAATKVAYTGLIIRNNEAAVQVGLENYAPSLANVQQSLKLFIQFIQQQLRDNVHFVVLGHYQLLDALLDKSLQTPDILSMIEERNLSGLVTYLSTEHPIVQILKENTQQQLNVLEHYIPNDHPALVELKIWERWLHTQGYKDIHLDITAQPPRSYYTGLFIQCHFAENESRVLTGGYYKGSIEGFGLGLTL | soluble
9 | MEIVRTKQFSLKPMDSEEAVLQMNLLGHSFYVYTDAETNGTNIVYSRKDGKYGLIETNLEHHHHHH | not soluble
10 | TTEENSKSEALLDIPMLEQYLELVGPKLITDGLAVFEKMMPGYVSVLESNLTAQDKKGIVEEGHKIKGAAGSVGLRHLQQLGQQIQSPDLPAWEDNVGEWIEEMKEEWRHDVEVLKAWVAKATKK | soluble
11 | MNYIESLISSVDSQIDTLNKAMIEVQSTIDLLSNGDLASSPEKLISIGSGLFAKGNITIDEDLIVPIGSGIYVAETKERSVERLKKNLEDIKASIQKLLDQRKTLVDQYNTVYATEATRNVK | not soluble
12 | MWNETWNEITNELIQLSREPESEIPRITAEQRAYLKLVRPAAFVEGIAVLRVPHSRAKETIETHLGQAITSVLSRRMGRPFTVAVTVDPTLDVIQDLPHDVPEQHIVQHHVPEHPHYSPVSQGYPPHYAPEQSEYNTEYSDEYPSGWATYHVQTPQPSQSSQSAQQQPAQRMPDRRRYA | not soluble
13 | MGSDKIHHHHHHAALSTNTVAVEKAPDMVAVMGGEPEVMLDKALEALGGIGNFVKKGQKIVIKPNIGWDRSPELAGNTNPKLVKALVKKCLEAGASKVTVFDHTCDNWQKCYETSGIAEAVKEAGGIIMPANDEKYFKEVSIPGGVNLKSAKIHEALIEADAWINVPVLKNHGGAKMTCAMKNYMGIVWDRRFFHQNDLQQCIADICTWQKKPVLNIVDAYRIMHQNGPQGKSAADVATLKSLIASPNIVAIDTAALRLFNQVKKLDMAAVGHIGKGEALKLGTTNLDNVTIKRIKI | not soluble
14 | MNIQSIETYQVRLPLKTPFVTSYGRLEEKAFDLFVITDEQGNQGFGELVAFEQPDYVQETLVTERFIIQQHLIPLLLTEAIEQPQEVSTIFEEVKGHWMGKAALETAIWDLYAKRQQKSLTEFFGPTRRKIPVGISLGIQEDLPQLLKQVQLAVEKGYQRVKLKIRPGYDVEPVALIRQHFPNLPLMVDANSAYTLADLPQLQRLDHYQLAMIEQPFAADDFLDHAQLQRELKTRICLDENIRSLKDCQVALALGSCRSINLKIPRVGGIHEALKIAAFCQENDLLVWLGGMFESGVGRALNLQFASQPTFSFPGDISATERYFYEDIITEPFILEQGTMTVPQGLGIGVTLSQTNLLKYSQYQKIM | not soluble
15 | MGSDKIHHHHHHMQFDNLLSRADDGTLQVLLGNAAVRLIKLLDPSLVTPSRLREILMELHTPASLLLTKDSRAMLLDLLRPEQAKILATIMQVPLTGDIFETLKKTSIRHGSNRERALFDFFELELPQPEDSVQSSSLELAVSNYPLFAHQRIAARKVKNYFKQEPRRVLLHMPTGSGKTRTAMNIIADHLRSVEPTIVVWLAYSEELCEQAATEFQKAWQCLGDRQVSLYRFWGEHEIDVDKLEDGIVVAGLSKVYNRTKQSIQFINRLGKVSSLVIIDEAHQAIAETYKLVLDALVVPYENTALLGLTATPGRTWSDINVDTELSEFFAKNKVTLEVSGYSNPVDYLISEEYLAKPNFRSLFYKNGLKLTQKDLERIQQELEIPQHILEQLADDEQRNLSIIIEVEELAKRHQRILIFGISIKHSKLLATVLRARGLQANVVTGDTPLLERTRLINSFKDDSDETKIICNYGVLTTGFDAPRTSAAVIARPTKSLVLYSQMVGRAIRGVKAGGNVTAEIVTVVDSALRGFGSLEEAFSNWEDVWHKEKI | not soluble
16 | MKIGIIGATGRAGSRILEEAKNRGHEVTAIVRNAGKITQTHKDINILQKDIFDLTLSDLSDQNVVVDAYGISPDEAEKHVTSLDHLISVLNGTVSPRLLVVGGAASLQIDEDGNTLLESKGLREAPYYPTARAQAKQLEHLKSHQAEFSWTYISPSAMFEPGERTGDYQIGKDHLLFGSDGNSFISMEDYAIAVLDEIERPNHLNEHFTVAGKLEHHHHHH | soluble
